Measurements reported in PMC10572819.

Experiments:
[1] = Western blot, HEK-293 co-transfected with BAP31; conditions: glycan lost; control: WT-EpCAM
[2] = Western blot, HEK-293 with BAP31 siRNA; conditions: glycan lost; control: WT-EpCAM

B1: epithelial cell-adhesion molecule (EpCAM): N76/111/198A (protein)
parent chain: MAPPQVLAFGLLLAAATATFAAAQEECVCENYKLAVNCFVNNNRQCQCTSVGAQNTVICSKLAAKCLVMKAEMNGSKLGRRAKPEGALQNNDGLYDPDCDESGLFKAKQCNGTSMCWCVNTAGVRRTDKDTEITCSERVRTYWIIIELKHKAREKPYDSKSLRTALQKEITTRYQLDPKFITSILYENNVITIDLVQNSSQKTQNDVDIADVAYYFEKDVKGESLFHSKKMDLTVNGEQLDLDPGQTLIYYVDEKAPEFSMQGLKAGVIAVIVVVVIAVVAGIVVLVISRKKRMAKYEKAEIKEMGEMHRELNA
other: rise in protein level on BAP31 overexpression [1]: abolishes | other: fall in protein level on BAP31 knockdown [2]: abolishes
